Source: paper PMC11068011 (Science Advances, 2024)

Target: T1, Recombinant p47-GST (human, UniProt Q9UNZ2 1-370)
T1 construct: p47 (NSFL1C), recombinant, bought (Novus H00055968-P01); source: bought: Novus, H00055968-P01, purified from wheat germ
T1 sequence (looked up): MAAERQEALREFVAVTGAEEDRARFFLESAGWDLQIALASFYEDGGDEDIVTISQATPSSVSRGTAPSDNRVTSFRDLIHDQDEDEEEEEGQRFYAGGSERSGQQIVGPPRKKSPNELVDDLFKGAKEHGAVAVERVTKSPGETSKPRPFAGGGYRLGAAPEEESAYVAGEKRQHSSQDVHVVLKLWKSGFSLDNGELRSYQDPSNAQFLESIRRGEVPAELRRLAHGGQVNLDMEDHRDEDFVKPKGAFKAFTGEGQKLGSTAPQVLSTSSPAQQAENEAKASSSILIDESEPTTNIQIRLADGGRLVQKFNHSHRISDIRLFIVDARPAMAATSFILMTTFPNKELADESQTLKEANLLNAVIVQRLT
Assay: pull-down; In vitro binding assay: 1 μg p47-GST and 2 μg p37 (WT or SHP), with or without 2 μg purified VCP, 1 hour at 4°C, then glutathione beads 1 hour; 25 mM Hepes pH 7.4, 150 mM NaCl, 0.01% Triton X-100, 5% glycerol
Conditions: both partners purified

B1: purified WT p37 (natural protein, human, UniProt Q14CS0 1-331, looked up)
chain: MAEGGGPEPGEQERRSSGPRPPSARDLQLALAELYEDEVKCKSSKSNRPKATVFKSPRTPPQRFYSSEHEYSGLNIVRPSTGKIVNELFKEAREHGAVPLNEATRASGDDKSKSFTGGGYRLGSSFCKRSEYIYGENQLQDVQILLKLWSNGFSLDDGELRPYNEPTNAQFLESVKRGEIPLELQRLVHGGQVNLDMEDHQDQEYIKPRLRFKAFSGEGQKLGSLTPEIVSTPSSPEEEDKSILNAVVLIDDSVPTTKIQIRLADGSRLIQRFNSTHRILDVRNFIVQSRPEFAALDFILVTSFPNKELTDESLTLLEADILNTVLLQQLK
notes: p37 (UBXN2B), human, wild type, from pGEX-6P-1 p37; also called p37 WT; p37WT; source: E. coli Rosetta 2 BL21 (DE3), purified (glutathione sepharose, eluted by PreScission cleavage)
B1: binds.
